Drawing on patent publication WO1996020011A1, this text covers immunoreactivity retained after radioiodination for one substance.

This test deals with LoVo tumour cells (carcinoembryonic antigen, the antigen of A5B7, on the cells) (human) (UniProt P06731). The experiment in a line: binding of the 125I-labelled conjugate to LoVo tumour cells, method of Lindmo et al.
UniProt P06731, sequence (P06731 35-702): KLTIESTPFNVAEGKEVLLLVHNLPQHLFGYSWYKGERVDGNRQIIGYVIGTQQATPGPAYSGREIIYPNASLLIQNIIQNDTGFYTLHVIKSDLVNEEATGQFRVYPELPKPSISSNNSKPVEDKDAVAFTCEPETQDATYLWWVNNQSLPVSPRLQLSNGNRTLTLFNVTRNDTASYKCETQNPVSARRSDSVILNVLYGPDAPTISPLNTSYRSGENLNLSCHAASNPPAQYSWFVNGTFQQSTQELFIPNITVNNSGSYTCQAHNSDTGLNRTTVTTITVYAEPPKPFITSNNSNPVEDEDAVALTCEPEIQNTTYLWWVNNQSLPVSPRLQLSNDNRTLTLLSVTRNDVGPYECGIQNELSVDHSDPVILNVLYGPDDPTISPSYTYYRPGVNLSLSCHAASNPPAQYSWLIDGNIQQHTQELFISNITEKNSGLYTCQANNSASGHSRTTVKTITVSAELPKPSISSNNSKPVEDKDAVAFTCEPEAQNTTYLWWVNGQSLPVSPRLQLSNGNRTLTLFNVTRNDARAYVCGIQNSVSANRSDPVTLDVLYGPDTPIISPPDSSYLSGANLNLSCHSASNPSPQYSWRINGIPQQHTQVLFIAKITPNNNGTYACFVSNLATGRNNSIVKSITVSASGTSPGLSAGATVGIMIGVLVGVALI

Substance “murine A5B7 F(ab')2-bovine pancreatic ribonuclease conjugate, radioiodinated with 125I (from UniProt P61823 27-150)” returned an immunoreactivity retained after radioiodination greater than 50%.
